Data from article PMC9352680, “A comprehensive thermodynamic model for RNA binding by the Saccharomyces cerevisiae Pumilio protein PUF4”.

T1: PUF4 RNA-binding domain (Saccharomyces cerevisiae, UniProt P25339 537-888)
T1 sequence: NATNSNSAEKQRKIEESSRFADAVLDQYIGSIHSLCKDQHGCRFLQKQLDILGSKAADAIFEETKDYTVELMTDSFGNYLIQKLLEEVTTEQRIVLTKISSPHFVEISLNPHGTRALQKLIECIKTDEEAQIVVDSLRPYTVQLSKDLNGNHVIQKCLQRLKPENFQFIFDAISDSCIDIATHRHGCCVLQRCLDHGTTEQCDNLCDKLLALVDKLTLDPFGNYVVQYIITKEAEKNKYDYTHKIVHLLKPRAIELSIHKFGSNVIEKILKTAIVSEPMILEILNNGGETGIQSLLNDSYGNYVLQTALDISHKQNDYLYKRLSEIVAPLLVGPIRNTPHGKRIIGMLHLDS

B1: Ic_S2_P5E.1_K5.1_C5.1_H5.1_A5.1_[T6C]_[A7G]_F5.1_[T9A]_[A10C]_T5.1 (ssRNA)
RNA: UUUGAUUAAUAUGAUAUCGUUCUUUCUUGUAUCGUACUUCUUUCUCGAUAUCAUAUUAAUCUUU
B2: Ic_S2_P5E.1_K5.1_C5.1_H5.1_A5.1_[T5C]_[T6C]_[A7C]_F5.1_[T8G]_[T9C]_[A10C]_T5.1 (ssRNA)
RNA: UUUGAUUAAUAUGAUAUCGUUCUUUCUUGUACCCGCCUUCUUUCUCGAUAUCAUAUUAAUCUUU
B3: Ic_S2_P5E.1_K5.1_C5.1_H5.1_A5.1_[T5C]_[T6A]_[A7C]_F5.1_[T9C]_[A10C]_T5.1 (ssRNA)
RNA: UUUGAUUAAUAUGAUAUCGUUCUUUCUUGUACACUCCUUCUUUCUCGAUAUCAUAUUAAUCUUU
B4: Ic_S2_P5E.1_K5.1_C5.1_H5.1_A5.1_[T5G]_[A7T]_F5.1_[T8G]_[T9C]_[A10T]_T5.1 (ssRNA)
RNA: UUUGAUUAAUAUGAUAUCGUUCUUUCUUGUAGUUGCUUUCUUUCUCGAUAUCAUAUUAAUCUUU
B5: Ic_S2_P5E.1_K5.1_C5.1_H5.1_A5.1_[T6A]_F5.1_[T8C]_[T9G]_[A10T]_T5.1 (ssRNA)
RNA: UUUGAUUAAUAUGAUAUCGUUCUUUCUUGUAUAACGUUUCUUUCUCGAUAUCAUAUUAAUCUUU
B6: Ic_S2_P5E.1_K5.1_C5.1_H5.1_A5.1_[T5A]_[T6A]_[A7C]_F5.1_[T9A]_T5.1 (ssRNA)
RNA: UUUGAUUAAUAUGAUAUCGUUCUUUCUUGUAAACUAAUUCUUUCUCGAUAUCAUAUUAAUCUUU
B7: Ic_S2_P5E.1_K5.1_C5.1_H5.1_A5.1_[T5C]_[T6C]_F5.1_[T9C]_[A10T]_T5.1 (ssRNA)
RNA: UUUGAUUAAUAUGAUAUCGUUCUUUCUUGUACCAUCUUUCUUUCUCGAUAUCAUAUUAAUCUUU
B8: Ic_S2_P5E.1_K5.1_C5.1_H5.1_A5.1_[T6A]_[A7G]_F5.1_[T8C]_[T9C]_[A10T]_T5.1 (ssRNA)
RNA: UUUGAUUAAUAUGAUAUCGUUCUUUCUUGUAUAGCCUUUCUUUCUCGAUAUCAUAUUAAUCUUU
B9: Ic_S2_P5E.1_K5.1_C5.1_H5.1_A5.1_[T6G]_[A7T]_F5.1_[T8A]_[T9C]_[A10T]_T5.1 (ssRNA)
RNA: UUUGAUUAAUAUGAUAUCGUUCUUUCUUGUAUGUACUUUCUUUCUCGAUAUCAUAUUAAUCUUU
B10: Ic_S2_P5E.1_K5.1_C5.1_H5.1_A5.1_[T5G]_[A7C]_F5.1_[T9A]_T5.1 (ssRNA)
RNA: UUUGAUUAAUAUGAUAUCGUUCUUUCUUGUAGUCUAAUUCUUUCUCGAUAUCAUAUUAAUCUUU
B11: Ic_S2_P5E.1_K5.1_C5.1_H5.1_A5.1_[A7T]_F5.1_[T8C]_[T9G]_[A10T]_T5.1 (ssRNA)
RNA: UUUGAUUAAUAUGAUAUCGUUCUUUCUUGUAUUUCGUUUCUUUCUCGAUAUCAUAUUAAUCUUU
B12: Ic_S2_P5E.1_K5.1_C5.1_H5.1_A5.1_[T5G]_[A7C]_F5.1_[T9G]_[A10T]_T5.1 (ssRNA)
RNA: UUUGAUUAAUAUGAUAUCGUUCUUUCUUGUAGUCUGUUUCUUUCUCGAUAUCAUAUUAAUCUUU
B13: Ic_S2_P5E.1_K5.1_C5.1_H5.1_A5.1_F5.1_[T8A]_[T9C]_[A10T]_T5.1 (ssRNA)
RNA: UUUGAUUAAUAUGAUAUCGUUCUUUCUUGUAUUAACUUUCUUUCUCGAUAUCAUAUUAAUCUUU
B14: Ic_S2_P5E.1_K5.1_C5.1_H5.1_A5.1_[T6G]_[A7T]_F5.1_[T9C]_[A10C]_T5.1 (ssRNA)
RNA: UUUGAUUAAUAUGAUAUCGUUCUUUCUUGUAUGUUCCUUCUUUCUCGAUAUCAUAUUAAUCUUU
B15: Ic_S2_P5E.1_K5.1_C5.1_H5.1_A5.1_[T5C]_[T6A]_[A7G]_F5.1_[T9C]_[A10C]_T5.1 (ssRNA)
RNA: UUUGAUUAAUAUGAUAUCGUUCUUUCUUGUACAGUCCUUCUUUCUCGAUAUCAUAUUAAUCUUU
B16: Ic_S2_P5E.1_K5.1_C5.1_H5.1_A5.1_[T5A]_[T6C]_[A7T]_F5.1_[T8G]_[T9C]_[A10T]_T5.1 (ssRNA)
RNA: UUUGAUUAAUAUGAUAUCGUUCUUUCUUGUAACUGCUUUCUUUCUCGAUAUCAUAUUAAUCUUU
B17: Ic_S2_P5E.1_K5.1_C5.1_H5.1_A5.1_[T5C]_[T6A]_F5.1_[T8A]_[T9A]_[A10T]_T5.1 (ssRNA)
RNA: UUUGAUUAAUAUGAUAUCGUUCUUUCUUGUACAAAAUUUCUUUCUCGAUAUCAUAUUAAUCUUU
B18: Ic_S2_P5E.1_K5.1_C5.1_H5.1_A5.1_[T5A]_[A7T]_F5.1_[T8A]_[T9C]_[A10G]_T5.1 (ssRNA)
RNA: UUUGAUUAAUAUGAUAUCGUUCUUUCUUGUAAUUACGUUCUUUCUCGAUAUCAUAUUAAUCUUU
B19: Ic_S2_P5E.1_K5.1_C5.1_H5.1_A5.1_[T5A]_[T6C]_[A7C]_F5.1_[T8C]_[T9A]_[A10T]_T5.1 (ssRNA)
RNA: UUUGAUUAAUAUGAUAUCGUUCUUUCUUGUAACCCAUUUCUUUCUCGAUAUCAUAUUAAUCUUU
B20: Ic_S2_P5E.1_K5.1_C5.1_H5.1_A5.1_[T5C]_[T6A]_F5.1_[T9A]_T5.1 (ssRNA)
RNA: UUUGAUUAAUAUGAUAUCGUUCUUUCUUGUACAAUAAUUCUUUCUCGAUAUCAUAUUAAUCUUU

Target: T1, PUF4 RNA-binding domain
Experiment: Mg; RNA-MaP; 20 mM Na-HEPES pH 7.4, 30 mM KOAc, 0.75 mM MgCl2, 0.1% Tween-20, 5% glycerol, 0.1 mg/mL BSA, 2 mM DTT; 25 C; 0.0125-409.6 nM protein
Details: tags: N-His6-TEV cleaved; C-SNAP kept, Cy3B-labelled; label: tethered on chip by stalled RNA polymerase

Point of comparison: B11, Kd 86.5 nM. Against it:
- B1 — 3.1-fold lower, 28 nM
- B2 — 12-fold higher, 1000 nM
- B3 — 16-fold lower, 5.44 nM
- B4 — 5-fold higher, 436 nM
- B5 — 5.8-fold lower, 15 nM
- B6 — 46-fold lower, 1.9 nM
- B7 — 17-fold lower, 5.17 nM
- B8 — within 1.5-fold, 61.4 nM
- B9 — 3.3-fold lower, 26.3 nM
- B10 — 14-fold lower, 6.4 nM
- B12 — within 1.5-fold, 60.9 nM
- B13 — 6.5-fold higher, 558 nM
- B14 — 7.3-fold lower, 11.9 nM
- B15 — 6.4-fold lower, 13.5 nM
- B16 — 2.2-fold higher, 189 nM
- B17 — 9.8-fold lower, 8.8 nM
- B18 — 8.8-fold higher, 761 nM
- B19 — 6.8-fold higher, 591 nM
- B20 — 88-fold lower, 0.983 nM
- UCUCUUUUUAUAUUAUCUCUU (ssRNA) [Ia_S1_P4E.1_K4.1_C4.1_H4.1_[G2T]_A4.1_F4.1_T4.1] — 7.6-fold higher, 655 nM
- UCUCUUUGUGUAUAAUCUCUU (ssRNA) [Ib_S1_P4E.1_K4.1_C4.1_H4.1_[A4G]_A4.1_F4.1_[T8A]_T4.1] — 7.6-fold lower, 11.4 nM
- UCUCUUUGUCUAUAAUCUCUU (ssRNA) [Ib_S1_P4E.1_K4.1_C4.1_H4.1_[A4C]_A4.1_F4.1_[T8A]_T4.1] — 19-fold higher, 1620 nM
- UCUCUUGGUAUAUUGUCUCUU (ssRNA) [Ib_S1_P4E.1_K4.1_C4.1_H4.1_[T1G]_A4.1_F4.1_[A9G]_T4.1] — 8-fold higher, 690 nM
